Experiment [1] addresses FcγIIIA Receptor on the effector cells (human) (UniProt P08637). In words: cell-based or functional assay.
The target of experiment [2] is C1q Receptor in the complement system (rabbit serum as the source of complement) (rabbit). Kind of experiment: cell-based or functional assay.

Sequence of FcγIIIA Receptor on the effector cells (human) (P08637 17-254): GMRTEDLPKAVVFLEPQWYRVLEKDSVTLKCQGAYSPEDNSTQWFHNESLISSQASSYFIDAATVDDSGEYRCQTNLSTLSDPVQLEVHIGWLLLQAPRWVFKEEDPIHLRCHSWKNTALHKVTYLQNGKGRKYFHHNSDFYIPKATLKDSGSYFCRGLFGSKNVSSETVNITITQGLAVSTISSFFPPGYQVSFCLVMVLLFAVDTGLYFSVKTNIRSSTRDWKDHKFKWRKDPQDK

In experiment [1], ARZERRA (ofatumumab) (antibody) returned an EC50 (ADCC, Raji targets, KILR CD16a effector cells) of 0.0741 ng/mL and an EC50 of ADCC assay Using Primary NK Cells (Raji targets, LDH release) of 500 µg/mL. The EC50 (CDC, Jeko-1 cells, rabbit complement) in experiment [2] came to 0.353 µg/mL.

In experiment [1], GAZYVA (obinutuzumab) (antibody) gave an EC50 (ADCC, Raji targets, KILR CD16a effector cells) of 0.00658 ng/mL and an EC50 of ADCC assay Using Primary NK Cells (Raji targets, LDH release) of 19 µg/mL.

Turning to OCREVUS (ocrelizumab) (antibody), the EC50 (ADCC, Raji targets, KILR CD16a effector cells) in experiment [1] is 0.0608 ng/mL. In experiment [2], the EC50 (CDC, Jeko-1 cells, rabbit complement) is 1.21 µg/mL.

Turning to RITUXAN (rituximab) (antibody), in experiment [1], the EC50 (ADCC, Raji targets, KILR CD16a effector cells) came out at 5.46 ng/mL and the EC50 of ADCC assay Using Primary NK Cells (Raji targets, LDH release) is 1390 µg/mL. In experiment [2], this substance had an EC50 (CDC, Jeko-1 cells, rabbit complement) of 0.245 µg/mL.

The record behind these values is patent publication US11884740.
